Target: SSPG1d peptide ([…])
Test: ELISA

B1: polyhistidine tagged scFv-SSPG1d-peptide (scFv)
scFv: MDIVLTQSPAIMSASPGEKVTMTCSASSSVSYMHWYQQKSSTSPKLWIYDTSKLASGVPGRFSGSGSGNSYSLTISSMEAEDVATYYCFQGSGYPLTFGAGTKLEIKRGAGGSGGGGSGGGGSGGGGSQVQLQQSGAELVRPGSSVKISCKASGYAFSNYWMNWVKQRPGQGLEWIGQIYPGYGDAKYNGKFKGKATLTADISSSTAYMQLSSLTSEDSAVYFCARSSYEANWGQGTLVTVSALEHHHHHH
With B1 the Kd was 26.7 nM.
